Laboratory results from patent publication US20010025379A1.

Experiments:
Assay in all cases: yeast two-hybrid, liquid β-galactosidase quantification
[1] = molecular target: ATMAP2 in the GAL4 DNA-binding domain vector (yeast two-hybrid fusion) (Arabidopsis thaliana)
[2] = molecular target: Cdc2a in the GAL4 DNA-binding domain vector (yeast two-hybrid fusion) (Arabidopsis thaliana)
[3] = molecular target: Cdc2b in the GAL4 DNA-binding domain vector (yeast two-hybrid fusion) (Arabidopsis thaliana)
[4] = molecular target: DB-vector alone (GAL4 DNA-binding domain without insert), control (UniProt P04386)
[5] = molecular target: PCNAAt in the GAL4 DNA-binding domain vector (yeast two-hybrid fusion) (Arabidopsis thaliana)
[6] = molecular target: cycA2;2 in the GAL4 DNA-binding domain vector (yeast two-hybrid fusion) (Arabidopsis thaliana)
[7] = molecular target: cycB1;1 in the GAL4 DNA-binding domain vector (yeast two-hybrid fusion) (Arabidopsis thaliana)
[8] = molecular target: cycB2;2 in the GAL4 DNA-binding domain vector (yeast two-hybrid fusion) (Arabidopsis thaliana)
[9] = molecular target: cycD1;1 in the GAL4 DNA-binding domain vector (yeast two-hybrid fusion) (Arabidopsis thaliana)
[10] = molecular target: cycD2;1 in the GAL4 DNA-binding domain vector (yeast two-hybrid fusion) (Arabidopsis thaliana)
[11] = molecular target: cycD3;1 in the GAL4 DNA-binding domain vector (yeast two-hybrid fusion / bait) (Arabidopsis thaliana)

Quantification [1]: 0 | Quantification [2]: 2.65 | Quantification [3]: 0 | Quantification [4]: 0 | Quantification [5]: 0 | Quantification [6]: 0.03 | Quantification [7]: 0.06 | Quantification [8]: 0.05 | Quantification [9]: 3.13 | Quantification [10]: 14.8 | Quantification [11]: 22.7
Substance: ICK1 in a GAL4-activation domain vector (yeast two-hybrid fusion) (from UniProt P04386 768-881)
